{"source": "IntAct's records for PubMed 23706742", "biological_target": "pk3cb_mouse Pik3cb (UniProt Q8BTI9)", "data": [{"substance": "Ras-related C3 botulinum toxin substrate 1 (Mus musculus) (from UniProt P63001) I33D", "values": [{"measurement": "effect of a mutation on the interaction", "value": "decreasing interaction strength"}]}]}
